# Test results reported in article PMC6558041.
# How the values were obtained:
# [1] = molecular target: hemolysin B (HlyB), ABC transporter of the HlyA type I secretion system (E. coli) (UniProt P08716)
# [2] = molecular target: HlyB∆CLD, truncated HlyB lacking the N-terminal C39 peptidase-like domain (E. coli)
# [3] = molecular target: hemolysin B (HlyB), ABC transporter of the HlyA type I secretion system (E. coli) (UniProt P08716); remark: listed apart in the source
# UniProt P08716, sequence (P08716 whole entry, the tested form may be a part): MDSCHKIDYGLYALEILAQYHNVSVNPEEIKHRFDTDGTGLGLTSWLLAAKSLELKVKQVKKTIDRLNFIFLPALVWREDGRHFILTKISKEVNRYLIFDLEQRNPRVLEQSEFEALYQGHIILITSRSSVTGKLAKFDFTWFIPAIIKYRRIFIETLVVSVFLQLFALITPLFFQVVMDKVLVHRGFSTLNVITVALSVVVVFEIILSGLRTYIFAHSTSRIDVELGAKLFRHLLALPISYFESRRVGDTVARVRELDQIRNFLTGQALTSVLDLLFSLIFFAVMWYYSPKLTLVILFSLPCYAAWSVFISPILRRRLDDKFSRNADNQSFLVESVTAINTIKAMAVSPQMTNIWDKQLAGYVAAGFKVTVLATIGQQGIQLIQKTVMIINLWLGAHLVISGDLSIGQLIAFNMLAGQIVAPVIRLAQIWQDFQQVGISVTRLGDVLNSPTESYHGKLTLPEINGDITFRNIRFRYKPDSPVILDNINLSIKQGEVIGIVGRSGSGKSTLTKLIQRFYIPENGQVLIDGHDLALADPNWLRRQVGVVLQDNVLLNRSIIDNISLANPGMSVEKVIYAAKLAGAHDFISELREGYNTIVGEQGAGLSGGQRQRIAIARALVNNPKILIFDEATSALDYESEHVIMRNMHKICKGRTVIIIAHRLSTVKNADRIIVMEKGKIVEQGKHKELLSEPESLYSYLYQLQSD
substance,measurement,setting,value
"proHlyA, full-length hemolytically inactive (non-acylated) precursor form of hemolysin A (from UniProt P08715 1-1024) (natural protein)","inhibition of the basal ATPase activity of HlyB in LPC-saposin-A nanoparticles by unfolded proHlyA, 0-10 µM, 4 mM ATP, 25 °C",[1],30%
same,"stimulation of ATP hydrolysis of HlyB in LPC-saposin-A nanoparticles by folded proHlyA (Ca2+), 0-10 µM, 4 mM ATP, 25 °C",[1],60%
same,"stimulation of the basal ATPase activity of HlyB∆CLD in LPC-saposin-A nanoparticles by folded proHlyA, 0-10 µM (Michaelis-Menten fit with substrate inhibition)",[2],2 fold
same,"stimulation of the basal ATPase activity of HlyB∆CLD in LPC-saposin-A nanoparticles by unfolded proHlyA, 0-10 µM, with strong substrate inhibition at higher concentrations",[2],4 fold
same,"inhibition of the basal ATPase activity of HlyB reconstituted with LPC/DOPC mixtures or LPC alone in saposin-A nanoparticles, with 10 µM unfolded proHlyA",[3],40%
